The source of these data is patent publication CN112225809A (FUZHOU CHUANGFANG PHARMACEUTICAL TECH CO LTD, dated 2021).

The target of test [1] is T1, hPD1/Fc of human IgG1 (fluorescently labelled) (human, UniProt Q15116 25-167, limits assumed, labelled with Alexa Fluor 488 (Example 2); printed as hPD-1/hFc-FITC in Example 5.5).
T1 construct: also called hPD-1/hFc-FITC; 荧光标记的PD1(Dimeric); not shown: Fc of human IgG1
Put plainly: flow cytometry blocking assay: Alexa Fluor 488 labelled hPD1/Fc on SPC-A1-PDL1 cells.

The target of test [2] is T2, Human PD1/PDCD1 Protein Biotinylated (Sinobiological, Cat.No.10377-H03H-B) (human, UniProt Q15116 25-167, biotinylated).
T2 construct: Bought reagent; also called 抗原; 人PD-1
T2 sequence (Q15116 25-167 limits assumed): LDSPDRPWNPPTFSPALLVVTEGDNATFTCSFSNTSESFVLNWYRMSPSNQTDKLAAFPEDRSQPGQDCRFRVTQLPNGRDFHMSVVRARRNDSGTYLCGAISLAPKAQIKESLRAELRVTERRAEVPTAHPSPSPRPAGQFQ
The experiment in a line: BLI (Octet Red96), biotinylated PD-1 on SA sensor, antibody in solution from 50 nM in two-fold dilutions. In general terms: In BLI a coated tip is dipped into the sample, and binding shifts an interference pattern.

T1 sequence (Q15116 25-167 limits assumed): as above

B1: UM1-56 (antibody, mouse IgG1, V domains shown)
VH: EVKLVESGGGLVKPGGSLKLSCAASGFTFSTYGMSWVRQTPEKRLEWVATISGGGRYTYYPDSVKGRFTISRDNAKNNLYLQMSSLRSEDTALYYCARQKGTTWFAHWGQGTLVTVSA
VL: not shown
notes: Mouse hybridoma antibody purified on Protein G; primers were designed on mouse IgG1 and kappa; also called 鼠源PD-1单克隆抗体UM1-56
With B1, the binding result in test [1] is “binds”.

B2: hUM1-30 (antibody, human IgG4 S228P, kappa, V domains shown)
VH: EVQLVESGGGLVQPGGSLRLSCAASGFTFSTYGMSWVRQAPGKGLEWVSTISGGGRYTYYPDSVKGRFTISRDNSKNTLYLQMNSLRAEDTAVYYCARQKGTTWFAHWGQGTLVTVSS
VL: DIQMTQSPSSLSASVGDRVTITCRASESVDDNGISFMNWFQQKPGKAPKLLIYAASNQGSGVPSRFSGSGSGTDFTLTISSLQPEDFATYYCQQSKEVPWTFGQGTKVEIKR
notes: Humanised from UM1-56; also called 人源化PD-1单克隆抗体(hUM1-30); UM1-56H-1 + UM1-56K-2
As for B2, in test [2], the Kd turned out to be 3.34 pM, the koff is 5.43e-06 s⁻¹ and the kon turned out to be 1.63e+06 M⁻¹ s⁻¹.

What is called Kd is the constant that tells how readily two partners part at equilibrium. Low readings indicate higher affinity, high ones lower affinity. The term koff denotes a measure of how fast the partners let go of each other. High values mean fast dissociation, low ones slow dissociation. What is called kon is the rate constant with which the complex forms.
